Values joined by “and” are separate entries in the source; they are usually repeats but may differ in a detail not shown here. Equal entries are not always repeated.
B1: Seq27 (LNCOV-27)/ADGN-106 nanoparticle complex (other)
peptide 1: EQAKTFLDKFNHEAEDLFPKWSAFLKEQSTLAQMYG
peptide 2: LWRALWRLWRSLWRLLWK
B2: Seq28 (LNCOV-20)/ADGN-106 nanoparticle complex (other)
peptide 1: KTFLDKFNHEAEDLFPGPKWSAFLKEQSTLAQMYG
peptide 2: LWRALWRLWRSLWRLLWK

Assays:
[1] = biological target: T1, SARS-CoV-2 Spike (SARS-CoV-2, UniProt P0DTC2 16-685); experiment: inhibitor screening kit, ADGN-106 nanoparticles (Example 6, section B)
[2] = biological target: T1, SARS-CoV-2 Spike; experiment: inhibitor screening kit, ADGN-106 nanoparticles (Example 6, section A)
[3] = biological target: T1, SARS-CoV-2 Spike

Binder | fold more potent than SBP-1-ADGN-106/ADGN-106 complex [1] [fold] | fold more potent than SBP-1 peptide/ADGN-106 complex [1] [fold] | fold more potent than SBP-1-ADGN-106/ADGN-106 complex [2] [fold] | fold more potent than SBP-1 peptide/ADGN-106 complex [2] [fold] | IC50 [3]
B1 | 4 | 35 | 6 | 40 | 1.8 nM and 1.1 nM
B2 | 4 | 35 | 6 | 40 | 2.7 nM and 2.1 nM

— US20230304010A1 (AADIGEN, published 2023)
